The data set addresses HMGA1a, non-phosphorylated (wt) (UniProt P17096 1-107). As to the kind of experiment: ITC. Background: Isothermal titration calorimetry measures the heat released or taken up as one component is titrated into another.

Chain of HMGA1a, non-phosphorylated (wt) (P17096 whole entry): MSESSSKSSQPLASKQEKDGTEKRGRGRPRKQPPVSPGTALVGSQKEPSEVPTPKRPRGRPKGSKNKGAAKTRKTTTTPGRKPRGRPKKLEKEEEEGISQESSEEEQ

B1: PRD2 element of NFkB promoter (dsDNA)
DNA 1: GGGAAATTCCTC
DNA 2: GAGGAATTTCCC
Molecule B1 registered a Kd of around 0.1 µM.

One may read the Kd as the equilibrium constant for the complex coming apart. Low values mean tighter binding, high ones weaker binding.
